Data published in publication PMC5770198.

B1: SbCYP82D2 (Scutellaria baicalensis) (protein)
chain: MLYDNSQYLAMEFSSAIYGAIAFFLFLYYCLLYTTSSKPNTRAYKAPPEAGGARLFSGHLHLMAGGTTGELPHINLANLADKHGPVFTIRLGVKRALVVSSWESAKELFTTCDVAVSSRPRMKAAKLLGYDFAMFGFAPYGAYWRELRKLISVELLSTRRMELQKEVRDSETRESIKELYKLWEERSEGSDSVLVDMKQWFGDLNLNVVLRMVAGKRWIGPETGRWREVLRDFFYLAGMFVPADAFPFLGWLDLGGHEKRMRQTAKELDGIVGGWVAEHREKEYSGEDKPKDFVDVMLSVVQGSSLRADYDADTIIKATCEALIVGGSDTTTVMLIWTLSFLLNNRHVLRKAQEELDKHVGRERRVNQSDINNLVYLQAIVKETLRLYPAGPIGGIREFTQDCQVGGYHVPKGTWLIVNLWKLHRDPKVWSEDCLEFRPERFLNKNIDVRGQDFELIPFGGGRRICPGANFGLHMLHLVLANLLQAFELTTVSDQVIDMTESAGMTNMKATPLNVLVAPRLSPTLY
B2: SbCYP82D1.1 (Scutellaria baicalensis) (protein)
chain: MELSSVIYGAIALLSLFYCYLHFSKPKKSSLNAPPEAGGARFITGHLHLMDGRSASDKLPHINLGLLADQHGPIFTIRLGVHRAVVVSSWELAKEIFTTHDTAVMARPRLIADDYLSYDGASLGFSPYGPYWREIRKLVTTELLSARRIELQRATRVREITQFTGELYKLWEEKKDGSGRVLVDMKQWLGNLSLNLVSRMVVGKRFYGGDDSETTKRWRGVMREFFQLIGQFIPGDGLPFLRWLDLGGFEKRTRDTAYELDKIIAMWLAEYRKREYSGDDKEQCFMALMLSLVQANPTLQLHYDADTIIKATCQVLISAASDTTTVILIWVISLLLNNADVLKKVQEELDEQVGRERRVEESDISNLPYLQAVVKETMRLYPPAPFAGVRAFSEDCTVGGYHIQKGTFLIVNLWKLHRDPRVWSDDALEFKPQRFFDKKVEVKGQDFELMPFGGGRRMCPGSNLGMHMVHFVLANILQAFDITTGSTVDMTESVGLTNMKATPLDAILTPRLSPTLY

Substrate: O=c1cc(-c2ccccc2)oc2cc(O)cc(O)c12
Test: cells, lysate or membranes
Details: 1 mM NADPH, 100 mM sodium phosphate pH 7.9, 0.5 mM reduced glutathione, 28°C, chrysin 0.1-5 μM

| Protein | Km (30 min) | Km (3 min) |
| --- | --- | --- |
| B1 | 1.051 µM |  |
| B2 |  | 0.121 µM |
